Measurements taken from patent publication US7763418B2, “Detection of Rho proteins” (Cytoskeleton, Inc., priority 2005, dated 2010).

Target: T1, Rac1 (61L) binding to POSH-GBD (Homo sapiens, UniProt P63000, Q61L)
T1 construct: His; purchased Cytoskeleton Inc. R6101
Test: Rac1:POSH G-LISA competition (drug discovery application)
Procedure: Active Rho protein (typically 7-15 μg total cell lysate or 1-5 ng of constitutively active recombinant protein) were either added directly to the effector bound G-LISA plate (Rac1 and Cdc42 G-LISAs) or diluted with an equal volume of Binding Buffer (20% PEG 8000, Sigma, St. Louis, Mo.) prior to adding to effector bound plates (RhoA G-LISA). The reactions were incubated for 30 minutes at 4° C. on a microtiter titer plate shaker after which wells were washed once with 200 μl of PBST (PBS pH 7.2, 0.05% Tween-20) and immediately treated with 200 μl of Antigen Presenting Buffer (1% trichloroacetic acid (TCA)) for 2-5 minutes at room temperature. Wells were then washed three times with 200 μl each of PBST and primary antibody is added typically at 1 μg/ml (RhoA specific), 0.25 μg/ml (Rac1 specific), 1 μg/ml (Cdc42 specific) and incubated at room temperature for 45 minutes (incubation at 4° C. gave similar results). Wells are washed three times with 200 μl each of PBST and incubated with appropriate secondary antibody for 45 minutes at room temperature (incubation at 4° C. gave similar results). […] After three washes each of 200 μl PBST the activated Rho proteins are detected using absorbance or luminescence detection as described below. […]

IC50 relative to PAK: approximately 80 times
B1: ROCK-GST: RhoA effector ROCK-GBD peptide, negative control inhibitor in Rac1:POSH G-LISA (protein)
chain: EAEQYFSTLYKTQVKELKEEIEEKNRENLKKIQELQNEKETLATQLDLAETKAESEQLARGLLEEQYFELTQESKKAASRNRQEITDKDHTVSRLEEANSMLTKDIEILRRENEELTEKMKKAEEEYKLEKEEEISNLKAAFEKNINTERTLKTQAVNKLAEIMNRKDFKIDRKKANT
modifications: left off: a dimerising Fc or GST
